Test results reported in the supplement of paper PMC12042874.
± gives the uncertainty stated by the source.

Experiment: amyloid nucleation score (Sup35N fusion, yeast selection) (log enrichment); library NNK2; higher = more nucleation; inactive = no reads after selection
Procedure, shortened: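 Libraries of peptides of 20 random codons fused to Sup35N were expressed in psi-negative yeast and induced 24 hours with 100 μM copper sulfate. Selection was 7 days at 30°C on medium lacking adenine and uracil, and plasmid inserts were Illumina-sequenced before and after selection. Nucleation score is the DiMSum log enrichment of output over input reads, centred on the mode score of non-aggregating sequences, and sequences with under 100 input reads were left out.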

| Substance | amyloid nucleation score |
| --- | --- |
| GYIYPNRIHNLYVGTMSVTV | 5.43 ± 0.093 |
| GYLGMWVKTCCQWTGERSDM | 4.66 ± 0.057 |
| GYSVH | -0.632 ± 1.1 |
| HAGVMLSFNIVVPNFTYSKE | 8.448 ± 0.051 |
| HAKPDNLLFLTNGEPRTIIR | -2.15 ± 1.1 |
| HAMPVYRAEFTLISTIL | 0.268 ± 0.32 |
| HAVDTHFADRGSLALKYSKC | 1.19 ± 0.59 |
| HCLEMGCGLYNAR | 9.476 ± 0.071 |
| HCNLPDWVHGIYMSKS | 0.127 ± 0.74 |
| HDKVCTSLRVVDQCLRPGH | 0.608 ± 0.38 |
| HDRWNWGDCFVIDHALLLMG | 0.393 ± 0.31 |
| HDTLIMFTYKVVVLLASERF | -0.549 ± 0.63 |
| HEPGLPVRSCNVGRHSLSIL | 0.522 ± 0.42 |
| HESVHTTHFMAFYC | 0.124 ± 0.61 |
| HFDEPFFCCAGMHAH | 6.8 ± 0.056 |
| HFENLTHYTIVSTFFSLGVP | inactive |
| HFIKKGDYNKTTKYSPCNEL | -0.941 ± 0.45 |
| HFILAIFLYCSIWIFEFFSL | -1.81 ± 1 |
| HFKWNYYSYSVWEWVFEQLH | -0.36 ± 0.63 |
| HFNLCTQNMSNGYRDCRHT | 4.68 ± 0.11 |
| HFYHLDTSHSGWDLKSSY | 4.68 ± 0.075 |
| HGGQRMCAGCV | 0.865 ± 0.31 |
| HGGRKG | 1.42 ± 0.31 |
| HGICRWL | 0.208 ± 0.25 |
| HGLLTKLWRPFMHGSV | 0.203 ± 0.31 |

| Substance | amyloid nucleation score |
| --- | --- |
| HGLTYIGIKCTYIKRVTWVR | 0.389 ± 0.57 |
| HHRMSYHY | 1.72 ± 0.28 |
| HIFCRLRLAGNRLRSCLCNF | -1.16 ± 1.1 |
| HIIGLIYQKGTSWTA | 4.85 ± 0.073 |
| HINMIGWEFSVGYGWQ | 4.9 ± 0.061 |
| HIVEDLRVSAFTFSIKFISE | 3.33 ± 0.099 |
| HIVIGSFD | inactive |
| HIWRHDRVLLGSSNTKYMCG | 0.759 ± 0.8 |
| HIYRKM | 0.151 ± 0.2 |
| HLIAFLSAYFYYVMLARMYF | -1.87 ± 1.1 |
| HLLPWMRVLYTYVCSNIQMF | -0.45 ± 0.36 |
| HLNCISRGPMWLNDRMCQCP | 1.76 ± 0.12 |
| HLPFMHPRPANLSHNKTSVS | -0.766 ± 0.4 |
| HLWFEDAQFAIAKFKCGGKR | 6.16 ± 0.086 |
| HMARYKIMSVLEIFHYMNRL | 3.16 ± 0.16 |
| HMGLLFKWAYTYRIAWGKLR | -0.451 ± 0.79 |
| HMSRTPQAVRTSHPRVKNRI | -0.026 ± 0.26 |
| HMTSS | -0.495 ± 0.33 |
| HNAEANNVS | -0.492 ± 1.1 |
| HNGVRRHMSNVSKILHSYF | 0.02 ± 1 |
| HNLQECSPVGPGTAFFCGSW | -0.243 ± 1.1 |
| HNLWCDISLFGHIYRGRGTM | 7.21 ± 0.08 |
| HNMPARKYINSLMTFHVRWP | -0.321 ± 0.79 |
| HNNCNRFCQSIVLH | 6.34 ± 0.078 |
| HNPLS | inactive |

| Substance | amyloid nucleation score |
| --- | --- |
| HNYGNPWE | 3 ± 0.12 |
| HNYVINESFFFLVVVYVDAG | 7.6 ± 0.037 |
| HQRLTRVLYWKVDIGQVCGI | 4.99 ± 0.065 |
| HRFIILNIVAFE | 0.59 ± 0.28 |
| HRLVLDIGDQIWSKA | 0.35 ± 0.56 |
| HRMNGFDLLMLVCKKCIDFC | inactive |
| HRSMPIRYWVVTIWYGRSDS | 0.569 ± 0.41 |
| HRSNFVVKLAASGSFTTGCR | 0.376 ± 0.29 |
| HSGLSGTILGWLIFKVEGEE | 0.007 ± 0.42 |
| HSHVRLWSLRFDAHPNWHDK | 1.15 ± 0.27 |
| HSICSSRNTVIFMSENFRNR | 4.99 ± 0.057 |
| HSQRNP | inactive |
| HSRQCFTHFGYFTGLGRVRV | 2.18 ± 0.1 |
| HSRRGGFRKYSSTLARPASD | -0.799 ± 0.49 |
| HSSCIVVEAFSQGVVHNLFV | -0.567 ± 1.1 |
| HSSEIL | -0.006 ± 0.65 |
| HSVFNSMRRENLVNNNTLNG | inactive |
| HSWNV | inactive |
| HTFYVNKLPLPKL | 0.875 ± 0.45 |
| HTWDLYYAIYSA | -1.19 ± 0.36 |
| HVAEEVMGIVARVRVLMILS | -0.598 ± 0.45 |
| HVHGMYSGWCYDKTGQEKGM | 0.624 ± 0.34 |
| HVLEVPPAYPTQTSGMNPNS | -0.143 ± 0.76 |
| HVRGDLSRTGKWVMLRCYTR | inactive |
| HVRMK | 4.79 ± 0.1 |

| Substance | amyloid nucleation score |
| --- | --- |
| HVSTSLYTIGSSVSWGMFQG | 0.897 ± 0.47 |
| HVVLNFCDTVWLMSKAP | 9.03 ± 0.078 |
| HVWGQLSCFARVALSDRSKM | 3.07 ± 0.16 |
| HWDQLV | -0.504 ± 0.78 |
| HWGSVAGDFWGFVVWSRFGR | 0.234 ± 0.34 |
| HWMAFVKRTANFDVIDWSAG | -0.278 ± 0.39 |
| HWSADDNFSSLQRLFVYMGR | 4.583 ± 0.043 |
| HYGNSWY | 0.958 ± 0.48 |
| HYLAIVTWLPYRCRF | 0.935 ± 0.15 |
| HYQYSFARTMVMLNMDWLML | 0.462 ± 0.43 |
| HYVSNEHSVRRTHHRKTKLT | 0.753 ± 0.67 |
| HYVVFVF | 6.37 ± 0.084 |
| HYWNWYVEL | 4.582 ± 0.037 |
| HYYWSALSSAFVNSMIVR | -1.09 ± 0.76 |
| IALGLNSYGK | -1.74 ± 0.78 |
| IALTQILLRFFGLHA | -0.305 ± 1.1 |
| IAMIVIQYTIRHCGSAEAVG | 2.34 ± 0.19 |
| IANYSFELFII | 2.87 ± 0.1 |
| IARIRILCLL | 0.234 ± 0.19 |
| IARRLTMGLTRMM | 1.56 ± 0.18 |
| ICLVRWDMKSRVDGTSGM | 5.194 ± 0.037 |
| ICPRRS | 0.474 ± 0.34 |
| ICRGPQSSNCMEAFVQHFTK | 0.417 ± 0.42 |
| ICSAPGYL | inactive |
| ICSDFGPNSGYRHQWVCIGV | -0.023 ± 0.45 |

| Substance | amyloid nucleation score |
| --- | --- |
| ICSYSVAGCYRKYRASFSGE | inactive |
| ICYLKTQGKWFIILPWFVMM | 0.241 ± 0.8 |
| IDCFIVISSMMSRVLYCGER | 0.21 ± 0.25 |
| IDFVVIKTLGMCDITYLYM | -0.573 ± 1.1 |
| IDGKARDYMAGDARMNRF | -1.45 ± 0.75 |
| IDLLFDFTDLMWLIYPVFLL | -1.93 ± 0.75 |
| IDLSTMTAGTCISYCVYCRI | 5.25 ± 0.1 |
| IDNSTMDTCIMNRSQFTIRL | -0.412 ± 0.54 |
| IDQCIYDHVHNWVRRVDTRS | 0.223 ± 0.18 |
| IDRCGTLVTPDGINGRVTRV | 0.951 ± 0.55 |
| IDSMGFSMKSFDFRYNTSRW | 5.02 ± 0.092 |
| IDSVIKTEARGQGVVARTRA | 1.33 ± 0.28 |
| IDSWCVTHATKIGSYWML | 0.12 ± 0.34 |
| IDVLYCHDSL | 0.311 ± 0.42 |
| IERHIYGMSDAVLGVD | -0.493 ± 1.1 |
| IEVGRHRWALWRVAQSRLIG | 0.308 ± 0.25 |
| IFAAGYMYIFILVYLLTARG | -0.01 ± 1 |
| IFCAGYDNPRFINLLLLPKG | 3.05 ± 0.1 |
| IFCCIRFLV | 6.549 ± 0.03 |
| IFCWRVSCEQRVFYLIESGR | -0.388 ± 0.24 |
| IFGLCCFCGSYQRY | 8.152 ± 0.033 |
| IFKCRRVI | 4.614 ± 0.041 |
| IFLAWMVPAGFWR | 0.56 ± 0.54 |
| IFLCFGYYNLEVLCFDTRCQ | 3.1 ± 0.064 |
| IFLDHYS | -0.026 ± 0.35 |

| Substance | amyloid nucleation score |
| --- | --- |
| IFLKWLYKSFDYNI | 0.973 ± 0.23 |
| IFNLSRAQTVINL | 5.34 ± 0.063 |
| IFRIWRTRGRRSRFVSIEIG | -0.802 ± 0.41 |
| IFRNWGYSTFSHE | inactive |
| IFRSSTLIDLKDLGLTSH | 1.27 ± 0.096 |
| IFRVLTGVIK | -0.277 ± 0.26 |
| IFSIHVVAQTINE | 4.64 ± 0.085 |
| IFSNIFSFV | 3.55 ± 0.13 |
| IFSWTLEV | 0.249 ± 0.64 |
| IGAMN | 0.586 ± 0.44 |
| IGCNVESVYAGLALQMT | 2.7 ± 0.18 |
| IGFSPLCQYHYCAYGCY | 7.695 ± 0.032 |
| IGIIYFIARFAVVPRSGIRQ | -0.114 ± 1 |
| IGIMQMIYFVD | 5.79 ± 0.068 |
| IGTEMLTVYIFTYSSA | 0.416 ± 0.74 |
| IGVVILNHADSSLVTL | 3.31 ± 0.091 |
| IHNKWNKMYDRPYLIKIVAS | -0.37 ± 0.36 |
| IIENDICHWSDICMEDLMDW | 0.186 ± 0.54 |
| IIGDTICVVIIKWNLKNYRS | 3.67 ± 0.075 |
| IIILFQVQCHVVRLSRVHKC | -0.658 ± 0.49 |
| IILIYVCRRPCLISQDNAFF | inactive |
| IIMNVVHEDSLL | 0.019 ± 0.5 |
| IINWPQLFKVASWTPSKTPP | -0.07 ± 0.76 |
| IIRMNLAGDGVESWGWDRLS | 1.12 ± 0.45 |
| IISSGSIDCVYWTWFLRY | -0.396 ± 0.55 |

| Substance | amyloid nucleation score |
| --- | --- |
| IIVSATSEGSLRRIRMKMGW | 4.27 ± 0.11 |
| IIWQPHSPCVRVYTCLSLIF | -1.67 ± 0.53 |
| IIYLIGLTRARHWCRLRYEL | -0.063 ± 0.3 |
| IKDLSRGCFSFYW | 1.37 ± 0.17 |
| IKFVEPYSFLS | 1.32 ± 0.092 |
| IKIIPPLKLLCVLGWHSRGA | 1.35 ± 0.19 |
| IKVYESYVRT | -0.812 ± 0.39 |
| ILCLF | 0.909 ± 0.45 |
| ILCYMVGSRIMCVEHSGC | 8.588 ± 0.064 |
| ILDSGVRYVFMRWLIGYCND | -0.513 ± 0.33 |
| ILFVLWKLDRRPCSLLEYTQ | 0.463 ± 0.56 |
| ILGSFEHSTQGKYSYWGMRG | 4.51 ± 0.066 |
| ILIMGMILNSMYV | 0.516 ± 0.64 |
| ILIVVMCFHSNNKSRDNRIY | -1.46 ± 1 |
| ILLNGRSFLRS | 0.174 ± 1 |
| ILLVSATHYSQLNKGRPNDL | 1.43 ± 0.35 |
| ILMRSYDFALGPNQCIIRAK | 4.95 ± 0.074 |
| ILQFKVGKGQGNAQLFKPII | -0.935 ± 0.55 |
| ILRDDGPNYRFQIRLL | 4.647 ± 0.038 |
| ILRTDMMINMDLLFGNVGNL | 3.38 ± 0.089 |
| ILSCGRYWRTDTIVVTGNST | 1.91 ± 0.35 |
| ILSDKCLIGIGCSISSDTAG | -0.352 ± 0.38 |
| ILSQPEEGLGGTKSSFCVVF | -0.363 ± 1.1 |
